From patent US20170015742A1 (published 2017) come the findings set out here.

A value given as a limit tells only on which side of the number the result lay.

The target in assay [1] is T1, Human PDGF-BB (human, UniProt P01127 82-190).
T1 construct: Dimer of two B chains; also called hPDGF-BB; huPDGF-BB
Description: Biacore SPR, antibody captured by anti-human Fc, PDGF-BB as analyte. The procedure: Unreacted moieties on the biosensor surface were blocked with ethanolamine. For kinetic analysis, rate equations derived from the 1:1 Langmuir binding model were fitted simultaneously to multiple antigen injections (using global fit analysis) with the use of Scrubber 2 (BioLogic Software), Biacore Biaevaluation 4.0.1 software or Biacore T100 Evaluation software. Purified antibodies or DVD-Ig molecules were diluted in running buffer for capture across goat anti-human Fc reaction surfaces. Antibodies or DVD-Ig molecules to be captured as a ligand (1 μg/ml) were injected over reaction matrices at a flow rate of 10 μl/minute. During the assay, all measurements were referenced against the capture surface alone (i.e., with no captured antibody or DVD-Ig molecule). […] The equilibrium dissociation constant KD (M) of the reaction between antibodies and the target antigen was then calculated from the kinetic rate constants by the following formula: KD=Koff/Kₒₙ. Binding was recorded as a function of time and kinetic rate constants were calculated. In this assay, on-rates as fast as 10⁶M⁻¹s⁻¹ and off-rates as slow as 10⁻⁶ s⁻¹ could be measured. […]
Background: Surface plasmon resonance follows binding to a sensor surface in real time, without labels.
Target sequence in this assay (P01127 82-190 limits assumed): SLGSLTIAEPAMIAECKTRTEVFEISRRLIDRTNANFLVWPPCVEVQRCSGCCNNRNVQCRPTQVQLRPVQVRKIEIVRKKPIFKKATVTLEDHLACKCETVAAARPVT

Assay [2] deals with T2, Cynomolgus monkey PDGF-BB (cynomolgus monkey, UniProt P01127 82-190 (human entry), limits assumed).
T2 chain: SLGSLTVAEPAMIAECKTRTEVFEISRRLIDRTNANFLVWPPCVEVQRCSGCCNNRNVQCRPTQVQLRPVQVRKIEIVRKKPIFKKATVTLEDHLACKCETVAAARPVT
Description: cell-based or functional assay.

Assay [3] addresses T1, Human PDGF-BB. In words: cell-based or functional assay.
The target of assay [4] is T1, Human PDGF-BB. Description: competition ELISA: antibody pre-incubated with hPDGF-BB-biotin, binding to coated hPDGF-Rβ-Fc. As for the experimental part: Plates were then washed four times with wash buffer (TBS, 0.05% Tween-20) and blocked with Superblock blocking buffer (Thermo Scientific, cat#37535). During the blocking step, supernatants, antibodies, benchmark compounds or DVD-Ig were diluted in assay diluent (10% Superblock containing 0.05% surfactamps) and an eight point titration of each sample molecule was performed. […] Following incubation, plates were washed four times with wash buffer. Detection reagent Streptavidin-polyHRP-40 (Fitzgerald, cat#65r-s104phrp) was diluted in assay diluent and added to plates (50 μL) for 45 minutes at 25° C. with shaking. Plates were washed four times with wash buffer and developed with the addition of Enhanced K-blue TMB substrate (Neogen, cat#308177). The reaction was stopped with 2N sulfuric acid (VWR, cat# BDH3500-1) and the absorbance was read at 450 nm-570 nm. […] Data was analyzed using Softmax Pro 4.8 software and IC₅₀ values calculated using a sigmoidal dose response (variable slope) fit in GraphPad Prism 5.
Potency was evaluated in both cell-based and ELISA formats.
Target sequence in this assay (P01127 82-190 limits assumed): as the sequence (P01127 82-190 limits assumed) above
Background: An ELISA detects its analyte on a solid surface through an enzyme-linked reagent.

B1: CL-33675-IgG (antibody, V domains shown)
VH: EVTLRESGPALVKPTQTLTLTCTFSGFSLSTYGMGVGWIRQPPGKALEWLANIWWDDDKYYNPSLKNRLTISKDTSKNQVVLTMTNMDPVDTATYYCARIESSGPKYSFDYWGQGTMVTVSS
VL: EIVLTQSPGTLSLSPGERATLSCRASSGSIWYSFVSWYQQKPGQAPRLLIYADDQRASGIPDRFSGSGSGTDFTLTISRLEPEDFAVYYCQSYGINIDVVFGGGTKVEIK
With B1, in assay [1], the affinity, expressed as Kd, was 0.00061 nM and the kon (in general, the rate constant with which the complex forms) came to 3.6e+07 M⁻¹ s⁻¹. Besides, the “cynoPDGF-BB NIH-3T3 Proliferation IC50” value in assay [2] was found to be 0.024 nM. For the same molecule, the “hPDGF-BB NIH-3T3 Proliferation IC50” value in assay [3] is 0.04 nM. Further, the IC50 (usually the point on the concentration scale where inhibition reaches its midpoint) in assay [4] stood at 0.054 nM.

B2: CL-33682-IgG (antibody, V domains shown)
VH: EVTLRESGPALVKPTQTLTLTCTFSGFSLSTYGMGVGWIRQPPGKALEWLANIWWDDDKYYNPSLKNRLTISKDTSKNQVVLTMTNMDPVDTATYYCARIESSWTSYSFDYWGQGTMVTVSS
VL: EIVLTQSPGTLSLSPGERATLSCERSSGSNYDTYVSWYQQKPGQAPRLLIYADDLRASGIPDRFSGSGSGTDFTLTISRLEPEDFAVYYCQSYGINIDVVFGGGTKVEIK
In the case of B2, in assay [1], the Kd – broadly, the constant that tells how readily two partners part at equilibrium – is no more than 0.00024 nM and the association rate constant (kon) was no less than 9e+07 M⁻¹ s⁻¹. Further, the “cynoPDGF-BB NIH-3T3 Proliferation IC50” value in assay [2] amounted to 0.019 nM. Besides, the “hPDGF-BB NIH-3T3 Proliferation IC50” value in assay [3] came to 0.03 nM. The molecule further gave a half-inhibitory concentration (IC50) in assay [4] of 0.069 nM.

B3: CL-33811-IgG (antibody, V domains shown)
VH: EVTLRESGPALVKPTQTLTLTCTFSGFSLSTYGMGVGWIRQPPGKALEWLANIWWDDDKYYNPSLKNRLTISKDTSKNQVVLTMTNMDPVDTATYYCARIESSWTTYSFDYWGQGTMVTVSS
VL: EIVLTQSPGTLSLSPGERATLSCERSSGSIWHSYVSWYQQKPGQAPRLLIYSDDQRATGIPDRFSGSGSGTDFTLTISRLEPEDFAVYYCQSYGIYIDVVFGGGTKVEIK
In the case of B3, in assay [1], the Kd is 0.00045 nM and the kon stood at 2.7e+07 M⁻¹ s⁻¹. In addition, the “cynoPDGF-BB NIH-3T3 Proliferation IC50” value in assay [2] amounted to 0.012 nM. The “hPDGF-BB NIH-3T3 Proliferation IC50” value in assay [3] was 0.032 nM. Besides, the IC50 in assay [4] was found to be 0.1 nM.

B4: CL-33683-IgG (antibody, V domains shown)
VH: EVTLRESGPALVKPTQTLTLTCTFSGFSLSTYGMGVGWIRQPPGKALEWLANIWWDDDKYYNPSLKNRLTISKDTSKNQVVLTMTNMDPVDTATYYCARIETIGPKYSFDYWGQGTMVTVSS
VL: EIVLTQSPGTLSLSPGERATLSCRASSGSIWYSFVSWYQQKPGQAPRLLIYADDQRASGIPDRFSGSGSGTDFTLTISRLEPEDFAVYYCQSYGINIDVVFGGGTKVEIK
Take B4: in assay [1], the dissociation constant (Kd) is 0.00044 nM and the kon was 1.9e+07 M⁻¹ s⁻¹. For the same molecule, in assay [2], the “cynoPDGF-BB NIH-3T3 Proliferation IC50” value is 0.028 nM. Besides, the “hPDGF-BB NIH-3T3 Proliferation IC50” value in assay [3] was determined as 0.029 nM. The 50% inhibitory concentration (IC50) in assay [4] amounted to 0.126 nM.

B5: CL-33731-IgG (antibody, V domains shown)
VH: EVTLRESGPALVKPTQTLTLTCTFSGFSLSTYGMGVGWIRQPPGKALEWLANIWWDDDKYYNPSLKNRLTISKDTSKNQVVLTMTNMDPVDTATYYCARIESIPTSYSFDYWGQGTMVTVSS
VL: EIVLTQSPGTLSLSPGERATLSCERSSGSIWQSYVSWYQQKPGQAPRLVIYADDQRATGIPDRFSGSGSGTDFTLTISRLEPEDFAVYYCQSYDIDIDVVFGGGTKVEIK
In assay [1], B5 had a Kd of 0.0002 nM and a kon of 8.1e+07 M⁻¹ s⁻¹. Also, the “cynoPDGF-BB NIH-3T3 Proliferation IC50” value in assay [2] is 0.023 nM. For the same molecule, the “hPDGF-BB NIH-3T3 Proliferation IC50” value in assay [3] was 0.036 nM. The same molecule showed an IC50 in assay [4] of 0.068 nM.

B6: CL-33706-IgG (antibody, V domains shown)
VH: EVTLRESGPALVKPTQTLTLTCTFSGFSLSTYGMGVGWIRQPPGKALEWLANIWWDDDKYYNPSLKNRLTISKDTSKNQVVLTMTNMDPVDTATYYCARIETMGPKYSFDYWGQGTMVTVSS
VL: EIVLTQSPGTLSLSPGERATLSCRASSGSIWYSFVSWYQQKPGQAPRLLIYADDQRASGIPDRFSGSGSGTDFTLTISRLEPEDFAVYYCQSYGINIDVVFGGGTKVEIK
As to B6, in assay [1], binding was put at a Kd of 0.00069 nM and the kon is 1.8e+07 M⁻¹ s⁻¹. Also, the “cynoPDGF-BB NIH-3T3 Proliferation IC50” value in assay [2] worked out at 0.019 nM. Moreover, the “hPDGF-BB NIH-3T3 Proliferation IC50” value in assay [3] stood at 0.035 nM. Besides, in assay [4], the IC50 was determined as 0.081 nM.
